How the values were obtained:
[1] = biological target: Vg5/Vd2 TCR on SKW3 cells (UniProt A0JD36); assay: flow cytometry DRC binding 37 C, SKW3 cells expressing Vg5/Vd2
[2] = biological target: Vg9/Vd1 TCR on SKW3 cells (UniProt Q99603); assay: flow cytometry DRC binding 37 C, SKW3 cells expressing Vg9/Vd1
[3] = biological target: Vg9/Vd2 TCR on SKW3_4 cells (UniProt Q99603); assay: flow cytometry DRC binding 37 C, SKW3_4 cells expressing Vg9/Vd2
[4] = biological target: Vg5/Vd2 TCR on SKW3 cells (UniProt A0JD36); assay: flow cytometry, dose-response binding at 37° C. on SKW3 cells expressing Vg5/Vd2
[5] = biological target: Vg9/Vd1 TCR on SKW3 cells (UniProt Q99603); assay: flow cytometry, dose-response binding at 37° C. on SKW3 cells expressing Vg9/Vd1
[6] = biological target: Vg9/Vd2 TCR on SKW3_4 cells (UniProt Q99603); assay: flow cytometry, dose-response binding at 37° C. on SKW3_4 cells expressing Vg9/Vd2

Sequence of Vg9/Vd1 TCR on SKW3 cells (Q99603 21-122): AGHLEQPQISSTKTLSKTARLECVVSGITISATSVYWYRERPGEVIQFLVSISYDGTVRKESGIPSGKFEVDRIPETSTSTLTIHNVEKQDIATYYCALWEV
Sequence of Vg9/Vd2 TCR on SKW3_4 cells (Q99603 21-122, chain 1 of 2): as the sequence (Q99603 21-122) above
Sequence of Vg9/Vd2 TCR on SKW3_4 cells (A0JD36 20-115, chain 2 of 2, further chain): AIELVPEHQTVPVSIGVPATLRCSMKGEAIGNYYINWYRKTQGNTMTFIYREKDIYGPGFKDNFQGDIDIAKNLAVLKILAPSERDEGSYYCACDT
Sequence of Vg5/Vd2 TCR on SKW3 cells (A0JD36 20-115): as the sequence (A0JD36 20-115, chain 2 of 2, further chain) above

Max. Activity (fold over background) [1]	Max. Activity (fold over background) [2]	Max. Activity (fold over background) [3]	Max. Activity (fold over background) [4]	Max. Activity (fold over background) [5]	Max. Activity (fold over background) [6]	Binder
226	288	181	–	–	–	VG9B136 (antibody, human IgG1, kappa, V domains shown) VH: QVQLQQSGPGLVKPSQTLSLTCAISGDSVSSNRAAWNWIRQSPSKGLEWLGRTYYRSKWYNEYAASVKSRMSINPDTSKNQFSLQLNSVTPEDTALYYCARDLWELREACDIWGQGTMVTVSS VL: DIVMTQSPSFLSTFVGDRVTITCRASQGISSYLAWYQQKPGKVPKLLIYVASTLQSGVPSRFSGSGSGTEFTLTISSLQPEDFATYYCQQLNSYPFTFGPGTKVDIKR
217	328	227	–	–	–	VG9B112 (antibody, human IgG1, kappa, V domains shown) VH: QVQLQQSGPGLVKPSQTLSLTCAISGDSVSSNSAAWNWIRQSPSRGLEWLGGTYYRSKWFNNYAVSVKSRITINPDTSTNQFSLQLNSVTPADTAVYYCARGEWGLRDAFDIWGQGTMVTVSS VL: DIQMTQSPSFLSASVGDRVIITCRASQGIHSYLAWYQQKPGKVPKLLIYVASTLQSGVPSRFSGSGSGTEFTLTISSLQPEDFATYYCQQLNSYPWTFGQGTKLEIKR
92.7	389	211	–	–	–	VG9B386 (antibody, human IgG1, kappa, V domains shown) VH: EVQLVESGGGLVKPGGSLRLSCAASGFTFSSYSMIWVRQAPGKGLEWVSSIGSSSTYIYYADSVRGRFTISRDNAKTSLYLQMNSLRAEDTAMYFCARDGETGGFDYWGQGILVTVSS VL: EIVMTQSPGTLSLSPGERATLSCRASQSISRSYLAWYQQKPGQPPRLLIYGPSNRATGIPDRFSASGSGTDFTLTNSRLEPEDFAVYYCQQYGSLPLTFGGGTKVEIKR
194	205	123	–	–	–	VG9B144 (antibody, human IgG1, lambda, V domains shown) VH: QVQLVQSGAEVKKPGASVKVSCKASGYTFTGYYMHWMRQAPGQGLEWMGWINPNSGATNKEQKFQGRVTMTRDTSISTAYMELSRLRSDDTAVYYCAREDDAFDVWGQGTMVTVSS VL: SSELTQDPAVSVALGQTVRITCQGDNLRNYYATWFQQKPGQAPVLVFFGKNNRPSGIPDRFSGSSSGDTASLTITGAQAEDEADYYCNSRDSSGNHVVFGGGTKLTVLG
261	435	201	–	–	–	VG9B387 (antibody, human IgG1, lambda, V domains shown) VH: EVQLVESGAEVKKPGASVKVSCKASGFTFTGYYLQWVRQAPGQGLEWMGWINPNSGYTDYAQRFQDRVTMTRDTSINTAYMELSRLRSDDTAVYYCARLDDAFDVWGQGTMVTVSS VL: SYELTQDPAVSVALGQTVRITCQGDSLRNYYAIWYQQKPGQAPVLVIFGKNNRPSGIPDRFSGSSSGTTASLTITGTQAEDEADYYCNSRDSSGNHWVFGGGTKLTVLG
281	295	154	–	–	–	VG9B392 (antibody, human IgG1, lambda, V domains shown) VH: QVQLVQSGAEVKRPGASAKVSCKTSGYTFTGYYIHWVRQAPGQGLEWMGWINPNSGYTNSAQKFQGRVSMTRDTSISTVYMELSRLRSDDTAVYYCAREDDAFDIWGQGTLVTVSS VL: SSELTQDPAVSVALGQTVRITCQGDSLRSYYARWYQQKPGQAPVLVIYGKNNRPSGIPDRFSGSSSGDTASLTITGALAEDEADYYCNSRDNSGNHVVFGGGTKVTVLG
260	295	160	–	–	–	VG9B379 (antibody, human IgG1, lambda, V domains shown) VH: EVQLVQSGPEVKKPGASVKVSCKASGYTFTGDYIHWVRQVPGQGLEWMGWINPNSGGTNYAQKFQGRVTMTRDTSISTAFMELSRLRSDDTAVYYCAREGGVAPAAPDAFDIWGQGTMVTVSS VL: SSELTQDPAVSVALGQTVRITCQGDSLRSYYARWYQQKPGQAPVVVIYGKNNRPSGIPDRFSGSSSGNTASLTITGAQAEDEADYYCNSRDSSGNHRVFGGGTKLTVLG
212	308	162	–	–	–	VG9B47 (antibody, human IgG1, kappa, V domains shown) VH: QVQLVQSGAEVKKPGSSVKVSCKASGGSFSNYAISWMRQAPGQGLEWMGGIIPFFGTPDYAQKFQGRVTITADKSTSTAYMELSSLRSEDTAVYYCSTGGGYGDYDYYYGINVWGQGTMVTVSS VL: DIVMTQSPLSSPVDLGQPASISCRSSQSLVHSDGNTYLSWLQQRPGQPPRLLIYKISNRFSGVPDRFSGSGAGTDFTLKISRVEAEDVGVYYCMQAKEFPLTLGGGTKVDIKR
224	245	126	–	–	–	VG9B96 (antibody, human IgG1, kappa, V domains shown) VH: EVQLVQSGAEVKKPGSSVKVSCKASGGTFSNYAISWVRLAPGQGLEWMGGIIPIFSAGTYAQRFQGRVTITADKSTSTAYMELNSLRSEDTAVYYCSSNSGTYYDYYYGMDVWGQGTMVTVSS VL: DIVMTQSPLSSHVTLGQPASISCRSSQSLVHSDGNTYLSWLQQRPGQPPRLLIYKIFNRLSGVPDRFSGSGAGTDFTLKISRVEAEDVGVYYCMQAKQFPLTFGGGTKVEIKR
–	–	–	1.42	40.6	16.7	VG9B60 (antibody, human IgG1, kappa, V domains shown) VH: QVQLVQSGAEVKKPGASVKVSCKASGYTFTGYYMHWVRQAPGQGLEWMGRINPNSGVTHYAQKFQGRVTMTRDTSISTAYMELSRLRSDDTAVYYCARGGSLVRGVISGLDYWGQGTTVTVSS VL: DIVMTQSPGTLSLSPGERATLSCRASQSFSGSYLAWYQQKPGQAPSLLIYGASSRATGIPDRFSGSGSGTDFTLTISRLEPEDFALYYCQQYGSSPPYTFGQGTKVEIKR
–	–	–	1.04	75.9	30.8	VG9B57 (antibody, human IgG1, kappa, V domains shown) VH: EVQLVESGGGLVKPGGSLRLSCAASGFTFSSHDMNWVRQAPGKGLGWVSSISSSSSYIFYADSVKGRFTISRDNAKNSLYLQMSSLRAEDTAVYYCARDLGVGVRDYYYYGMDVWGQGTMVTVSS VL: DIQMTQSPSAMSASVGDRVTITCRASQDITNYLAWFQQKPGKVPKRLIYAASSLQGGVPSRFSGSGSGTEFTLTISSLQPEDFSTYYCLQHDTYPYTFGQGTKLEIKR
–	–	–	1.86	121	39.7	VG9B21 (antibody, human IgG1, kappa, V domains shown) VH: EVQLLESGGGLVKPGGSLRLSCAASGFSFSNYDMNWVRQAPRKGLEWVSSISSSSHYIYYADSLKGRFTISRDNAKNSLFLQMNSLRAEDTAVYYCARDRGVTTDYYYYALDVWGQGTMVTVSS VL: DIVMTQSPSSLSASVGDRVTITCRASQGIYNYLAWYQQKPGNVPKLLIYAASTLQSGVPSRFSGSGSGTDFSLTISSLQPEDFTTYYCQKYNRAPFTFGPGTKVDIKR
21.5	1.46	46.1	–	–	–	VG9B189 (antibody, human IgG1, lambda, V domains shown) VH: EVQLVQSGGGLVKPGASLKLSCAASGFTFSNHGMSWVRQTSDKRLEWVASITRGGDTTYYPDNVKGRFTISRENAKNTLYLQMSSLKSDDTALYYCTRGPLTVGYAMDYWGQGTTVTVSS VL: QSVVTQPPSASGSPGQSVTISCTGTSSDVGGYNYVSWYQQHPGKAPKLMIYEVSKRPSGVPDRFSGSKSGNTASLTVSGLQAEDEADYYCNSYAGSNNFEVFGGGTKVTVLG
–	–	–	1.04	179	33.9	VG9B66 (antibody, human IgG1, kappa, V domains shown) VH: EVQLVESGGGLVKPGGSLRLSCAASGFTFSTYTMNWVRQAPGKGLEWVSSISSSSFYMDYADSVKGRFTISRDNAKNSLSLLMNSLRAEDTAVYYCARDGDIVATIRGSFDYWGQGTMVTVSS VL: EIVLTQSPSSLSTSVGDRVTITCRASQDITNFLAWYQQKPGKLPKLLIYTASTLQSGVPSRFSGSASGPDFTLTISSLQPEDVATYYCQKYNSAPFTFGPGTKVEIKR
–	–	–	8.45	408	176	VG9B409 (antibody, human IgG1, kappa, V domains shown) VH: EVQLVESGAEVKKPGASVKVSCKASGYTLTSYYMHWVRQAPGQGLEWMGIINPSGGSTSYAQKFQGRVTMTRDTSTSTVYMELSSLRSEDTAVYYCARGSYGWYFDLWGRGTLVTVSS VL: EIVLTQSPGTLSLSPGERATLSCRASQSVTSSYLAWYQQKPGQTPRLLIYGASSRATGIPDRISGSGSGTDFTLTVSRLEPEDFAVYYCQQYGSSPPYTFGQGTKLEIKR
16.1	2.18	11.4	–	–	–	VG9B41 (antibody, human IgG1, kappa, V domains shown) VH: QVQLQESGPQLVRPGASVKISCKASGYSFTTYWMHWVKQRPGQGLEWIGLIDPSDSETRLNQKFKDKATLTVDKSSSTAYMRLSSPTSEDSAVYYCASNRWLLGWGQGTMVTVSS VL: EIVLTQTPLSSPVTLGQPASISCRSSQSLVHSDGNTYLSWLHQRPGQPPRLLIYKISNRFSGVPDRFSGSGAGTDFTLKISRVETEDVGVYYCVQTREFPLTFGGGTKVEIKR
148	137	102	–	–	–	VG9B77 (antibody, human IgG1, kappa, V domains shown) VH: EVQLVESGAEVMKPGSSVKVSCKASGGTFSSYAISWVRQAPEQGLEWMGGIIPFFGTADYAQKFQGRVTITADKSTNTAYMELTSLRSEDTAVYYCATATVTTDYYYGMDVWGQGTMVTVSS VL: EIVMTQSPLFSPVTLGQPASISCRSSQSLVHSDGNTYLSWLQQRPGQPPRLLIYEISNRFTGVPDRFSGSGAGTDFTLKISRVEAEDVGVYYCMQARQFPLTFGGGTKVEIKR
